# According to PMC9127371, “Assembly of nuclear dimers of PI3K regulatory subunits is regulated by the Cdc42-activated tyrosine kinase ACK” (The Journal of Biological Chemistry, 2022):
# Square brackets hold non-standard residues; d marks the D form. Ends that are not written are not given here. * marks the point of attachment. 5FAM = O=C1OC2(c3ccc(O)cc3Oc3cc(O)ccc32)c2ccc(C(=O)*)cc21; pY = N[C@@H](Cc1ccc(OP(=O)(O)O)cc1)C(=O)O
# T1: p85β cSH2 (603–712) (mouse, UniProt O08908 603-712)
# T1 construct: PI3K regulatory subunit p85β, mouse, C-terminal SH2 domain, residues 603-712; also called cSH2 domain of p85β; source: E. coli, purified (glutathione-agarose, HRV 3C cleavage, S75 size exclusion)
# T1 sequence (looked up): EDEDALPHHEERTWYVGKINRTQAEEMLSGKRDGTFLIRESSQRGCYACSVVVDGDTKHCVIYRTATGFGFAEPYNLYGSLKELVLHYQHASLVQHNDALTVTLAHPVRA
# B1: [5-FAM]-SD-[pY]-MNMTP, CD28 peptide (peptide)
# peptide: 5FAM-SD[pY]MNMTP
# notes: Known p85 SH2 target peptide from CD28; also called control peptide from CD28; source: synthetic peptide; bought: Biomatik
# B2: [5-FAM]-TEDQ-[pY]-SLMEDE, phosphorylated peptide based on p85β (peptide)
# peptide: 5FAM-TEDQ[pY]SLMEDE
# notes: also called β peptide; p85β (pYSLM) peptide; source: synthetic peptide; bought: Cambridge Research Biochemicals
# B3: [5-FAM]-TEDQ-[pY]-SLVEDE, phosphorylated peptide based on p85α (peptide)
# peptide: 5FAM-TEDQ[pY]SLVEDE
# notes: also called α peptide; p85α (pYSLV) peptide; source: synthetic peptide; bought: Biomatik
# Legend:
# Assay in all cases: fluorescence polarisation; SH2 domain titrated into 5-FAM-labelled peptide (20 nM CD28, YSLV, pYSLV; 40 nM YSLM, pYSLM), 298 K, 96-well plates, single site binding isotherm
# Details in all cases: both partners purified
# [1] = molecular target: T1, p85β cSH2 (603–712)
# [2] = molecular target: T2, p85α cSH2 (614–720) (human, UniProt P27986 614-720)
# T2 construct: PI3K regulatory subunit p85α, human, C-terminal SH2 domain, residues 614-720; also called cSH2 domain of p85α; source: E. coli, purified (glutathione-agarose, HRV 3C cleavage, S75 size exclusion)
# T2 sequence (P27986 614-720): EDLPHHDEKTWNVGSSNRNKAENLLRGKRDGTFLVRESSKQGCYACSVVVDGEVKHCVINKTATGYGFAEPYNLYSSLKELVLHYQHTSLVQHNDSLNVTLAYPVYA
# [3] = molecular target: T3, p85β nSH2 (312–425) (mouse, UniProt O08908 312-425)
# T3 construct: PI3K regulatory subunit p85β, mouse, N-terminal SH2 domain, residues 312-425; also called nSH2 domain of p85β; WT nSH2 domain of p85β; source: E. coli, purified (Ni-NTA, HRV 3C cleavage, size exclusion); not shown: His6, N-terminal, cleaved; MBP, N-terminal, cleaved
# T3 sequence (O08908 312-425): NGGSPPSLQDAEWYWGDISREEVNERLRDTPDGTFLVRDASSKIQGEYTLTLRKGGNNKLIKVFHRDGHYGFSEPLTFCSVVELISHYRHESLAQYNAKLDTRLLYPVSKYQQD
# [4] = molecular target: T4, p85α nSH2 (325–430) (human, UniProt P27986 325-430)
# T4 construct: PI3K regulatory subunit p85α, human, N-terminal SH2 domain, residues 325-430; also called nSH2 domain of p85α; WT nSH2 domain of p85α; source: E. coli, purified (glutathione-agarose, HRV 3C cleavage, S75 size exclusion)
# T4 sequence (P27986 325-430): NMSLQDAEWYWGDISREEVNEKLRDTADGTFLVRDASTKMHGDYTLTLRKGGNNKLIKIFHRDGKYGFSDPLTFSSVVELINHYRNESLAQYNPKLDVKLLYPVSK
# [5] = molecular target: T5, p85α nSH2 R358M (human, UniProt P27986 325-430, R358M)
# T5 construct: PI3K regulatory subunit p85α, human, N-terminal SH2 domain, residues 325-430, with R358M; also called R358M variant; R358M SH2–null mutant; source: E. coli, purified
# T5 sequence (P27986 325-430 R358M): as the sequence (P27986 325-430) above, with R34M counted along it
Binder,Kd [1] [nM],Kd [2] [nM],Kd [3] [µM],Kd [4] [nM],Kd [5] [nM]
B1,100,43,–,–,–
B2,–,656,0.052,82,2900
B3,–,84000,9,2400,–
